System: K4 kissing-loop RNA reporter
Assay: apparent KD of K4 kissing-loop reporter; higher = weaker reporter binding
Details: Eterna round: R107
Method: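 RNA-MaP round R107: designed RNA switches with theophylline, tryptophan, arginine or FMN aptamers are transcribed on-chip within common flanks. They are titrated with a labelled K4 kissing-loop RNA reporter in RNA-MaP buffer (100 mM Tris pH 7.5, 80 mM KCl, 4 mM MgCl2), without ligand or with the indicated ligand. Median apparent KD per design.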

[1] = input ligand: theophylline 20 uM
[2] = input ligand: tryptophan 2.4 mM
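Note: bound reporter read as fluorescence of individual clusters on recovered sequencing chips by microscopy, with normalized cluster intensities fitted with a binding model.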

Sequence | apparent KD of K4 kissing-loop reporter (input ligand: FMN 200 uM) | apparent KD of K4 kissing-loop reporter (input ligand: arginine 13.2 mM) | apparent KD of K4 kissing-loop reporter (input ligand: none) | apparent KD of K4 kissing-loop reporter [1] | apparent KD of K4 kissing-loop reporter [2]
AAAAUAAACCAGUGAUGUUGGUGUCCAGAUACCAGCGACAAAAGUCGCCCUUGGCAGCUGUGGACGUACAAAAUAAGUACGUCCU [MatMod 1 - Jieux - Same State - Theophylline A] | 390 nM | 271 nM | 393 nM | 256 nM | 316 nM
AAACAUCACUGGGAGUGAUGUUCUCAGUGACGAGGACCGGUACGGCCGCCACUCGCGAGAGAUAUAAAUGAGUAAUGACAUCAUU [Excl Tryptophan A V2] | 276 nM | 236 nM | 280 nM | 258 nM | 325 nM
AAACAUUGGUCGGAUACCAGCUUGAUCGGAAAACGAUCUGCUGGAGUGAUGUUCCAAUAAAGCCCUUGGCAGCCGACCGAUGAAA [MAT - Same State Theophlline B - Mod of Eli - D14] | 814 nM | 679 nM | 1070 nM | 747 nM | 780 nM
AAAGCAGUAUACUGCAAGACCUAUACUGAUACCAGAGUCAAUUGACUCCCUUGGCAGCGGAUCGAGUGAUGUUCGUAAGGUCAAA [AK4.1 SS Theophylline A] | 498 nM | 555 nM | 528 nM | 734 nM | 617 nM
AAAUAAUGCAGUCACCCAGUGAUGUUGGAAGGAGCGUGCGAAAGCACAGGUAGGUCGCCAAUAAUGAUAAAGUUCAGUGGCUUUA [JR_Nu_ExcArginiA_Sub030] | 766 nM | 682 nM | 454 nM | 464 nM | 659 nM
AAAUUGUUUAGAGGAUAUUCUUUAUUCGACAUAACCUUCUAUAAGGUGCAGUGAUGUUGCAAUAUAGGAGAAGGUUGAGUGAUAA [Exclusion FMN B Gf 15] | 135 nM | 118 nM | 136 nM | 121 nM | 113 nM
AAAUUUUCAAGUGAUACCAGACAUUUCUAUUACAUUAAUAUAGCUAAGUGAUGUUUAGCAGUCCCUUGGCAGCACUAUUUAAUUA [JR_SSTheophyB_Sub014] | 201 nM | 265 nM | 253 nM | 355 nM | 216 nM
AACCGUGUGGCGGCCGCCACUAGUCUCCAGUGAUGUUGGAGAGAUCACGUAAGUGAUCUCCGACAUAGGACCGGGCCAUAUGGAA [Same State - Tryptophan B (Freestyle 24)] | 509 nM | 152 nM | 295 nM | 351 nM | 661 nM
AACGCAAGUUGUCUGGUAGACAUUUCAGAUACCAGACAUAGUGAUGUCCCUUGGCAGCUGAACAUCCAGUGAUGUUGGAUACGUU [Theo A SS t11a] | 444 nM | 394 nM | 513 nM | 507 nM | 400 nM
AACGUAGCUACUGAUACCAGACUUUUUCUUGUAUAUUAGUCAAGUGAUGUUUGACUUUUAGUCCCUUGGCAGCAGUUGCUACGAA [JR_Nu_SSTheophyB_Sub028] | 89.2 nM | 84.3 nM | 91.4 nM | 82.6 nM | 98.3 nM
AACUCUCAGGCACGCGAGUGAUGUUCGCGCCGAGGACCGGUACGGCCGCCACUCGGGCCUGAGAGAGGUUAUCAAAGAUAGCCAA [whbob_SS_tryp_A] | 306 nM | 105 nM | 137 nM | 204 nM | 250 nM
